Laboratory results: patent publication US20250018014A1, “METHOD FOR TREATING AND/OR PREVENTING REGNASE-1-RELATED DISEASE” (OSAKA UNIVERSITY, priority 2018, published 2025)
Positions count from the first letter of the chain named. Entries after “also recorded” stand apart in the source; their conditions may differ.

B1: REA0023: anti-Regnase-1 antibody; heavy chain SEQ ID NO: 20, light chain SEQ ID NO: 21 (antibody)
heavy: QSLEESGGDLVKPGASLTLTCTDAGFSFSGVYWMHWVRQAPGKGLEWIACINAGSSGSTYYASWAKGRFTISKPSSTTVTLQMTSLTVADTATYFCARSFTLWGPGTLVTVSSGQPKAPSVFPLAPCCGDTPSSTVTLGCLVKGYLPEPVTVTWNSGTLTNGVRTFPSVRQSSGLYSLSSVVSVTSSSQPVTCNVAHPATNTKVDKTVAPSTCSKPTCPPPELLGGPSVFIFPPKPKDTLMISRTPEVTCVVVDVSQDDPEVQFTWYINNEQVRTARPPLREQQFNSTIRVVSTLPITHQDWLRGKEFKCKVHNKALPAPIEKTISKARGQPLEPKVYTMGPPREELSSRSVSLTCMINGFYPSDISVEWEKNGKAEDNYKTTPAVLDSDGSYFLYNKLSVPTSEWQRGDVFTCSVMHEALHNHYTQKSISRSPGK
light: AVVTQTPSSVSAAVGGTVTIKCQSSQSVGNNNYLAWFQQKPGQPPKLLIYSASTLASGVPSRFSGSGSGTQFTLTISGVQCDDAATYYCLGGYDGDGEAFYVFGGGTEVVVKGDPVAPTVLIFPPAADQVATGTVTIVCVANKYFPDVTVTWEVDGTTQTTGIENSKTPQNSADCTYNLSSTLTLTSTQYNSHKEYTCKVTQGTTSVVQSFNRGDC
B2: REA0027: anti-Regnase-1 antibody; heavy chain SEQ ID NO: 22, light chain SEQ ID NO: 23 (antibody)
heavy: B1 heavy with D23A, A24S, S27G, G30S, V31S, G57T, S58K, R98W, T101N
light: B1 light with Y33W

What was measured:
[1] = system: appearance of non-phosphorylated Regnase-1 in MEF; assay: Immunoblot analysis of Regnase-1 in MEFs during the recovery phase after IL-17A stimulation; assay type: cell-based, mouse; details: after IL-17A (50 ng/ml) one hour; cycloheximide and okadaic acid (0.5 μM)
Experimental: Total mRNA was prepared from cells treated with doxycycline for 0 to 4 hours, and then subjected to Northern blotting using [^32P] labelled probes. […] Cells were treated with IL-17A (50 ng/ml) for one hour, and subsequently incubated in a medium with no additives (control), a medium containing cycloheximide (100 μM), or a medium containing both cycloheximide and okadaic acid (0.5 μM) for 0 to 240 minutes. […] The qPCR data (A, B, and E) were collected from four independent experiments. The error bars represent mean±SEM. ***P<0.005.
Next, the present inventors investigated the mechanism of target mRNA suppression in Regnase-1AA/AA cells. As described above, suppression of target mRNA is more enhanced at later stages of IL-17A stimulation. The present inventors used immunoblot analysis of phosphorylated and non-phosphorylated Regnase-1 during the recovery phase after the completion of IL-17A stimulation. […] The increase in the amount of non-phosphorylated Regnase-1 protein was enhanced much more strongly in Regnase-1AA/AA MEF than in wild type cells.

[2] = system: IL-6 mRNA stability in Regnase-1AA/AA MEF; assay: qPCR analysis of IL-6 mRNA levels in Regnase-1AA/AA MEFs after TNF-α and IL-17A, with ActD; assay type: cell-based, mouse; details: ActD and okadaic acid (0.5 μM)
[3] = system: Regnase-1 phosphorylation upon IL-17A stimulation in MEF; assay: Immunoblot analysis of Regnase-1 in wild-type MEFs stimulated with IL-17 in the presence of BX795; assay type: cell-based, mouse; details: BX795 (50 μM)
From the text: The two arrows indicate the phosphorylated form (upper) and unphosphorylated form (lower) of Regnase-1.
To identify the kinase responsible for Regnase-1 phosphorylation in the IL-17A signaling pathway, the inventors investigated a series of MEFs lacking TBK1, IKKi, TBK1/IKKi, Act1, IKKa/IKKβ, or IRAK1/IRAK2. […] To investigate whether TBK1 and IKKi directly phosphorylate Regnase-1, the present inventors prepared recombinant Regnase-1 purified from a MEF cell line stably expressing FLAG-tagged Regnase-1. Phosphorylation of recombinant Regnase-1 by recombinant TBK1 and/or IKKi under in vitro conditions was detected as an electrophoretic mobility shift pattern by immunoblotting and ^32P autoradiography (FIG. 12-2D). […] The phosphorylation pattern of Regnase-1 by IRAK appeared to be similar to that by TBK1 and IKKi, but Regnase-1 phosphorylation occurred in IRAK1/IRAK2 double-deficient MEF (FIG. 12-2E). In contrast, Regnase-1 phosphorylation in response to IL-1β occurred in TBK1/IKKi double-deficient MEF (FIG. 12-3J).

[4] = target: T1, Peptide 1 ([…]), partial peptide of human Regnase-1 (Homo sapiens, UniProt Q5D1E8); assay: Binding of anti-non-phosphorylated Regnase-1 peptide antibodies to bead-bound Peptide 1 (iQue screener); details: streptavidin-immobilized beads; histograms FIG. 32
T1 construct: […], biotin-conjugated peptide; made in house; host or cells: chemical synthesis
Experimental: (§1) • Biotin-Conjugated FL_Reg1, Biotin-Conjugated Peptide • […], biotin-conjugated peptide • AFPPREYWSEPYPLPPPTC-NH2, and biotinylated BSA (Sigma, A8549) were each bound to streptavidin-immobilized beads.
(§2) These beads were mixed with each anti-Regnase-1 antibody, and they were allowed to react. Thereafter, Anti-Rabbit IgG1 Alexa488 (molecular probes, A21244) was mixed and reacted, and analysis was performed with iQue screener PLUS (intellicyt). Data was analyzed with FlowJo ver10.

[5] = target: T2, FL_Reg1 (human full-length Regnase-1) (Homo sapiens, UniProt Q5D1E8); assay: Binding of anti-non-phosphorylated Regnase-1 peptide antibodies to bead-bound full length human Regnase-1 (iQue screener); details: streptavidin-immobilized beads; histograms FIG. 32
T2 construct: made in house; host or cells: Expi293 cells
T2 sequence (Q5D1E8 1-599): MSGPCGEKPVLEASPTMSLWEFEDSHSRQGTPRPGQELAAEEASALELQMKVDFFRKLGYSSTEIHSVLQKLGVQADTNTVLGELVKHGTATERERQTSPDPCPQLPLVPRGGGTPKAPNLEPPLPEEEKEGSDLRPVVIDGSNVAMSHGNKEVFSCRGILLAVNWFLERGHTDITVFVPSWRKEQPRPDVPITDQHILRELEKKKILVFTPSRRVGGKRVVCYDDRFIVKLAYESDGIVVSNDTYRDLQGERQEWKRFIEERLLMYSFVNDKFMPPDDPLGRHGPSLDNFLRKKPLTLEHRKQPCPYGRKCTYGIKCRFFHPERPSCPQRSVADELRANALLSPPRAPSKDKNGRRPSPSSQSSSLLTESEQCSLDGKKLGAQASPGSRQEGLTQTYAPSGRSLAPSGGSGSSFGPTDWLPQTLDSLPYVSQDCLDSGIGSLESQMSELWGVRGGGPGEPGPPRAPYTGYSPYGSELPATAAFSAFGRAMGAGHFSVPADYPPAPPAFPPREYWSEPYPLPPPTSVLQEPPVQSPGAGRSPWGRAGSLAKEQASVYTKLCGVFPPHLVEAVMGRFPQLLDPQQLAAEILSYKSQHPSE
Experimental: as §1, §2

[6] = target: T3, Regnase-1 phosphorylation by IKKβ (Homo sapiens, UniProt Q5D1E8); assay: Inhibitory activity of anti-Regnase-1 antibodies against Regnase-1 phosphorylation by IKKβ (Phos-tag gel, western blotting); assay type: biochemical; details: antibody at final concentrations of 16.7 μg/mL and 5.0 μg/mL; relative to Control group
T3 construct: GST (N, cleaved yes); made in house; host or cells: Expi293 cells
T3 sequence (Q5D1E8 1-599): T2 sequence (Q5D1E8 1-599)
Experimental: To a solution (ATP buffer) containing Kinase Assay Buffer III (manufactured by SignalChem) supplemented with 2 mM DTT, 100 μM sodium vanadate, 2 mM manganese chloride, and 15 μM ATP, dephosphorylated Regnase-1 was mixed at 150 nM. Four microliters of this solution and 4 μL of HEPES Buffered Saline containing 50 μg/mL or 15 μg/mL of anti-Regnase-1 antibody were mixed, and this was allowed to react for one hour. This reaction solution was mixed with 4 μL of ATP buffer containing 150 nM of each kinase (IKKβ or TBK1), and further reacted for one hour. After the reaction, 4 μL of 4× Laemmli Sample buffer (manufactured by Bio-Rad) was added and this mixture was incubated at 95° C. for five minutes for protein denaturation treatment. This sample was ice-cooled for three minutes, and 10 μL of it was added to SuperSep Phos-tag 7.5% 17 wells (manufactured by Wako) placed in EasySeparator (manufactured by Wako). […] Chemiluminescence was detected using ImageQuant LAS4000 mini (manufactured by GE Healthcare).
A band for phosphorylated Regnase-1 was detected due to treatment with each kinase (FIG. 33A). Band densities were measured with Image Quant-TL (manufactured by GE Healthcare). The relative value for the band density of the sample to which each compound was added was calculated, considering the band density of the kinase-added sample of the Control group, to which no compound was added, as 1. […]

| Molecule | appearance of non-phosphorylated Regnase-1 during the recovery phase [1] | IL-6 mRNA stability / half-life [2] | Regnase-1 phosphorylation upon IL-17A stimulation [3] | binding to Peptide 1 compared with biotinylated BSA [4] | binding to FL_Reg1 compared with biotinylated BSA [5] | density of the phosphorylated Regnase-1 band in IKKβ treatment [6] |
| --- | --- | --- | --- | --- | --- | --- |
| C=C1[C@@H](O)[C@@H]2O[C@]3(CC[C@H](/C=C/[C@@H](C)[C@@H]4CC(C)=C[C@@]5(O[C@H](C[C@@](C)(O)C(=O)O)CC[C@H]5O)O4)O3)CC[C@H]2O[C@@H]1[C@@H](O)C[C@H](C)[C@H]1O[C@@]2(CCCCO2)CC[C@H]1C [okadaic acid] | non-phosphorylated Regnase-1 did not appear | IL-6 mRNA stability was also enhanced; also recorded: dramatic increase in the half-life of IL-6 mRNA | – | – | – | – |
| O=C(NCCCNc1nc(Nc2cccc(NC(=O)N3CCCC3)c2)ncc1I)c1cccs1 [BX795] | – | – | inhibited Regnase-1 phosphorylation | – | – | – |
| B1 | – | – | – | bound more strongly | bound more strongly | decreased |
| B2 | – | – | – | bound more strongly | bound more strongly | decreased |
